The text below walks through data of US11111295.

Some results are limits rather than exact numbers.

This test deals with human claudin 18A2 (CLD18A2) (human). The test is described as follows: cell-based or functional assay.
Chain of human claudin 18A2 (CLD18A2) (human) (chain, as listed by the source limits assumed, form in doubt): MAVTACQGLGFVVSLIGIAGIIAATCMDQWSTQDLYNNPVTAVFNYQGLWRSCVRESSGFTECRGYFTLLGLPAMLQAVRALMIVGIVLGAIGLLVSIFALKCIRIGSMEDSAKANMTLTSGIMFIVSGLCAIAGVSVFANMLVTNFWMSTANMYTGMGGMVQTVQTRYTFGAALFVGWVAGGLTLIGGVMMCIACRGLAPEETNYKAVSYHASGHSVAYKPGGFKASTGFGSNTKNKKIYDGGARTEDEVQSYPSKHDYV

Regarding hu8E5-28Z chimeric antigen receptor, the CAR-T cytotoxicity on AGS-A2 cells, effector-to-target ratio 3:1 is greater than 60% and the CAR-T cytotoxicity on BGC-823-A2 cells, effector-to-target ratio 3:1 is greater than 90%.
